Source: patent US20260207767A1 (ANAVEON, published 2026)
Blank lines part the entries; values can stand above or below the binder they belong to.

Key:
[1] = molecular target: T1, human PD-1 expressed on cells (human, UniProt Q15116 25-288); assay: cell-based or functional assay
[2] = molecular target: T2, IL-2R CD122-CD132 on Jurkat-PD1+CD122+ cells (UniProt P14784 27-551; P31785 23-369); assay: cell-based or functional assay
T2 sequence (looked up) 1: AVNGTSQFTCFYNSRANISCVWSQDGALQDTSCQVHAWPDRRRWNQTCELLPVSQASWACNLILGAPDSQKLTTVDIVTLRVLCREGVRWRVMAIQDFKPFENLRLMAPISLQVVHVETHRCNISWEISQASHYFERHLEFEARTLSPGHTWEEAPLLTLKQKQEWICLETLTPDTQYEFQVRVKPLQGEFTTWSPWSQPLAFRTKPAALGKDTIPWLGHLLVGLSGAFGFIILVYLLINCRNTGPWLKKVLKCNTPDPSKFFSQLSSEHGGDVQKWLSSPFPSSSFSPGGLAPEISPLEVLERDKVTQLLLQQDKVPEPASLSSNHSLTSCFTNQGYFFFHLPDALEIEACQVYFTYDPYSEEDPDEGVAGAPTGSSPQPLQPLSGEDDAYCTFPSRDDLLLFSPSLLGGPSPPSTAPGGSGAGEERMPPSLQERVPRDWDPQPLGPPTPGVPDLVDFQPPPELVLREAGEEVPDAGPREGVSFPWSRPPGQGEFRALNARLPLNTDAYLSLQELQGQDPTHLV
T2 sequence (looked up) 2: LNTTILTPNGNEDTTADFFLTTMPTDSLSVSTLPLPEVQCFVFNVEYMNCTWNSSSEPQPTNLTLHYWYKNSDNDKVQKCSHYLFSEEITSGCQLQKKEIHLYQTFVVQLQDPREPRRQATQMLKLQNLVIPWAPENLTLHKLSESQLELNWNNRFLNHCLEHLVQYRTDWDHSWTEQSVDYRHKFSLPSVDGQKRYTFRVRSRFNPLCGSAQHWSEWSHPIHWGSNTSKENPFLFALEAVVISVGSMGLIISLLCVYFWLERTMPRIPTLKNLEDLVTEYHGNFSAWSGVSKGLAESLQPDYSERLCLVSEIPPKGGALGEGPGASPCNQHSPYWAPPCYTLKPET

[3] = molecular target: T1, human PD-1 expressed on cells; assay: flow cytometry, CHO-S hPD-1
[4] = molecular target: T3, recombinant cynoPD-1 (construct not stated) (cynomolgus monkey, UniProt B0LAJ3 25-170); assay: ELISA
T3 construct: not shown: probably His as elsewhere
T3 sequence (B0LAJ3 entry or part of it limits assumed): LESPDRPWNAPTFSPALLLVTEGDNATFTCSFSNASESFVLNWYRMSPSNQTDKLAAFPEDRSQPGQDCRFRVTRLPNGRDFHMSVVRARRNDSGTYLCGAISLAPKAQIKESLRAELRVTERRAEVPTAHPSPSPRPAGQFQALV

[5] = molecular target: T4, recombinant hPD-1 (construct not stated) (human, UniProt Q15116 25-167, limits assumed); assay: ELISA
T4 construct: also called huPD-1; Human PD1
T4 sequence (Q15116 25-167 limits assumed): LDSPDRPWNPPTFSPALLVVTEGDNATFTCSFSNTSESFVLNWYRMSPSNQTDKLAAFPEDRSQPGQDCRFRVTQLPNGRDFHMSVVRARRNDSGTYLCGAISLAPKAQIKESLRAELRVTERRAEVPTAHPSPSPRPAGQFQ

[6] = molecular target: T5, cynomolgus PD-1 expressed on cells (cynomolgus monkey, UniProt B0LAJ3 25-288); assay: flow cytometry, CHO-S Cyno-PD-1
T5 construct: also called CHO-S Cyno-PD-1; 293:cyPD1
T5 sequence (B0LAJ3 entry or part of it limits assumed): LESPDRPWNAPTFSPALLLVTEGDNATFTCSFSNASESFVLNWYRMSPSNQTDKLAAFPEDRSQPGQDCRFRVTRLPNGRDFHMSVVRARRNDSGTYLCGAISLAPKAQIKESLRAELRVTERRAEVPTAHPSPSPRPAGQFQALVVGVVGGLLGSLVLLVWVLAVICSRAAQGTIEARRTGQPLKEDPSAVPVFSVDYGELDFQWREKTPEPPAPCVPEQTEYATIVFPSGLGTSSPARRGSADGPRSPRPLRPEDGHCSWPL

[7] = molecular target: T6, cynoPD-1 His (AcroBiosystems PD1-C5223) (cynomolgus monkey, UniProt B0LAJ3 25-170); assay: SPR; second ka column, taken as cynoPD-1
T6 construct: also called cPD-1; cynomolgus PD-1 His-tagged
Procedure: Anti-human Fc IgG (Jackson) was immobilized on amine reactive CM5 chips (GE Healthcare) using 1×HBS-EP+ running buffer (GE Healthcare). The test antibodies were captured at flow rate 10 μl/min with 30 s contact time. […] Regeneration was carried out with 10 mM Glycine-HCl, pH 1.5 at flow rate 10 μL/min. This protocol is to be used, unless stated otherwise, in determination of Kd wherever used to define the KD of antibodies specified herein, with adaptions where necessary with regard to the nature of the interaction partners.
Every position in the antibody VH and VL-CDRs was mutated by PCR using a mutagenic primer containing a degenerate codon NNS at a specific CDR position, introducing a combination of all 20 amino acids. The library of single mutants was screened by scFv capture ELISA using a redundancy factor of 4 (on 96-well plate er position). Clones displaying ≥2× ELISA signal compared to the wild-type scFv were sequenced, and clones with unique sequences were re-grown, re-screened by capture ELISA and ranked by dose-dependent ELISA on human and cyno antigens, and by FACS using human antigen expressing cells. Affinity improving mutations were used to design a combinatorial library using the Kunkel method. The library was screened by scFv capture ELISA using the redundancy factor of 4 (4× number of combinations). Clones displaying ≥2× ELISA signal compared to the wild-type scFv were sequenced, and clones with unique sequences were re-grown, re-screened by capture ELISA and ranked by dose-dependent ELISA on human and cyno antigens, and by FACS using human antigen expressing cells.

[8] = molecular target: T7, hPD-1 Avi-Tag Biotin (AcroBiosystems PD1-H82E4) (human, UniProt Q15116 25-167, biotin on Avi-Tag); assay: SPR, Ab captured, PD-1 analyte
T7 construct: bought; also called human PD-1
T7 sequence (Q15116 25-167 limits assumed): as the sequence (Q15116 25-167 limits assumed) above
Procedure: Anti-human Fc IgG (Jackson) was immobilized on amine reactive CM5 chips (GE Healthcare) using 1×HBS-EP+ running buffer (GE Healthcare). The test antibodies were captured at flow rate 10 μl/min with 30 s contact time. […] Regeneration was carried out with 10 mM Glycine-HCl, pH 1.5 at flow rate 10 μL/min. This protocol is to be used, unless stated otherwise, in determination of Kd wherever used to define the KD of antibodies specified herein, with adaptions where necessary with regard to the nature of the interaction partners. […]

T1 sequence (Q15116 25-288): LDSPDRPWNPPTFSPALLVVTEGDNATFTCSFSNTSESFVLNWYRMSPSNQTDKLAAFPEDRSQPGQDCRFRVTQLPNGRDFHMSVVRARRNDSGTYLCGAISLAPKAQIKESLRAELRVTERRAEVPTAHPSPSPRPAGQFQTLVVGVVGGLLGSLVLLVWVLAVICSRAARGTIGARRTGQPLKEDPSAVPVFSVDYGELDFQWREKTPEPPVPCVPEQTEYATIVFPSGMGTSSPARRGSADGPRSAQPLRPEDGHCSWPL

B1: NZA596 (bispecific antibody, human IgG1, kappa, lambda, L234A L235A)
heavy 1: EVQLLESGGGLVQPGGSLRLSCAASGFTFSINAMTWVRQAPGKGLEWVSTISGSGFSTYYADSLKGRFTISRDNSKNTLYLQMNSLRAEDTAVYYCAKEVYGDYWGQGTLVTVSSASTKGPSVFPLAPSSKSTSGGTAALGCLVKDYFPEPVTVSWNSGALTSGVHTFPAVLQSSGLYSLSSVVTVPSSSLGTQTYICNVNHKPSNTKVDKRVEPKSCDKTHTCPPCPAPEAAGGPSVFLFPPKPKDTLMISRTPEVTCVVVDVSHEDPEVKFNWYVDGVEVHNAKTKPREEQYNSTYRVVSVLTVLHQDWLNGKEYKCKVSNKALAAPIEKTISKAKGQPREPQVCTLPPSREEMTKNQVSLSCAVKGFYPSDIAVEWESNGQPENNYKTTPPVLDSDGSFFLVSKLTVDKSRWQQGNVFSCSVMHEALHNHYTQKSLSLSPGK
light 1: not shown
heavy 2: EVQLVQSGAEVKKPGESLKISCKGSGYAFTNYLIEWVRQMPGKGLEWMGVINPGSGGTNYNEKFKGQVTISADKSISTAYLQWSSLKASDTAMYYCARWRGEGYYAYFDVWGQGTTVTVSSASTKGPSVFPLAPSSKSTSGGTAALGCLVKDYFPEPVTVSWNSGALTSGVHTFPAVLQSSGLYSLSSVVTVPSSSLGTQTYICNVNHKPSNTKVDKRVEPKSCDKTHTCPPCPAPEAAGGPSVFLFPPKPKDTLMISRTPEVTCVVVDVSHEDPEVKFNWYVDGVEVHNAKTKPREEQYNSTYRVVSVLTVLHQDWLNGKEYKCKVSNKALAAPIEKTISKAKGQPREPQVYTLPPCREEMTKNQVSLWCLVKGFYPSDIAVEWESNGQPENNYKTTPPVLDSDGSFFLYSKLTVDKSRWQQGNVFSCSVMHEALHNHYTQKSLSLSPGK
light 2: not shown
EC50 of NZA596, % pSTAT5+ Jurkat PD-1+CD122+ cells, pre-incubation with Medium [1]: 0.85 nM
EC50 of NZA596, pre-incubation with 21A08Ap1 [1]: 15.6 nM
EC50 of NZA596, pre-incubation with Cemiplimab [1]: 1.67 nM
EC50 of NZA596, pre-incubation with Cetrelimab [1]: 0.76 nM
EC50 of NZA596, pre-incubation with Dostarlimab (m102) [1]: 0.96 nM
EC50 of NZA596, pre-incubation with Ezabenlimab [1]: 1.71 nM
EC50 of NZA596, pre-incubation with Nivolumab [1]: 1.1 nM
EC50 of NZA596, pre-incubation with Pembrolizumab [1]: 1.02 nM
EC50 of NZA596, pre-incubation with Tislelizumab [1]: 1.47 nM
EC50 of NZA596, pre-incubation with Toripalimab [1]: 0.65 nM
EC50 of NZA596, pre-incubation with Zeluvalimab [1]: 0.88 nM
fold reduction in NZA596 Potency, pre-incubation with 21A08Ap1 [1]: 18.2 fold
fold reduction in NZA596 Potency, pre-incubation with Cemiplimab [1]: 1.95 fold
fold reduction in NZA596 Potency, pre-incubation with Cetrelimab [1]: 0.89 fold
fold reduction in NZA596 Potency, pre-incubation with Dostarlimab (m102) [1]: 1.12 fold
fold reduction in NZA596 Potency, pre-incubation with Ezabenlimab [1]: 2 fold
fold reduction in NZA596 Potency, pre-incubation with Nivolumab [1]: 1.28 fold
fold reduction in NZA596 Potency, pre-incubation with Pembrolizumab [1]: 1.2 fold
fold reduction in NZA596 Potency, pre-incubation with Tislelizumab [1]: 1.72 fold
fold reduction in NZA596 Potency, pre-incubation with Toripalimab [1]: 0.77 fold
fold reduction in NZA596 Potency, pre-incubation with Zeluvalimab [1]: 1.03 fold
EC50 (read off the curve), % pSTAT5+ of CFSE+ cells pre-blocked with Nivolumab [panel CFSE+ cells] [2]: ~0.9 nM
EC50 (read off the curve), % pSTAT5+ of CFSE+ cells pre-blocked with Pembrolizumab [panel CFSE+ cells] [2]: ~0.9 nM
EC50 (read off the curve), % pSTAT5+ of CFSE+ cells; No blocking [panel CFSE+ cells] [2]: ~0.6 nM
EC50 (read off the curve), % pSTAT5+ of CTV+ cells; No blocking [panel CTV+ cells] [2]: ~0.5 nM
EC50 (read off the curve), % pSTAT5+ of CTV+ cells; mixed with CFSE+ cells pre-blocked with Nivolumab [panel CTV+ cells] [2]: ~0.6 nM
EC50 (read off the curve), % pSTAT5+ of CTV+ cells; mixed with CFSE+ cells pre-blocked with Parental mAb [panel CTV+ cells] [2]: ~0.6 nM
EC50 (read off the curve), % pSTAT5+ of CTV+ cells; mixed with CFSE+ cells pre-blocked with Pembrolizumab [panel CTV+ cells] [2]: ~0.6 nM

B2: XVT458-z2-m1 (antibody, V domains shown)
VH: QVQLVQSGAEVKKPGASVKVSCKASGYTFTNFYIHWVRQAPGQGLEWMGSIYPNYGFTAYNQKFKDRVTMTVDTSTSTAYMELRSLRSDDTAVYYCARGYSYAMDYWGQGTTVTVSS
VL: DIQMTQSPSSVSASVGDRVTITCSASQGIWGDLNWYQQKPGKAPKLLIYHTSQLHSDVPSRFSGSGSGTDFTLTISSLQPEDFATYYCQGYSKDLLTFGGGTKLEIK
notes: IgG format; also called z2-XVT458-m1; z2_XVT458m1
EC50 [3]: 1.5 nM
Max MFI [3]: 41000 MFI
EC50 [4]: 0.087 nM
Max OD [4]: 3.58 OD
EC50 [5]: 0.083 nM
Max OD [5]: 3.39 OD
Max MFI [6]: 70 MFI
kon [7]: 185000 M⁻¹ s⁻¹
Kd [8]: 0.148 nM
koff [8]: 3.28e-05 s⁻¹
kon [8]: 222000 M⁻¹ s⁻¹

Further lines, results first:

EC50 [3]: 1.15 nM
Max MFI [3]: 42800 MFI
EC50 [4]: 0.086 nM
Max OD [4]: 3.56 OD
EC50 [5]: 0.076 nM
Max OD [5]: 3.34 OD
Max MFI [6]: 367 MFI
kon [7]: 127000 M⁻¹ s⁻¹
Kd [8]: 1.24 nM
koff [8]: 0.00019 s⁻¹
kon [8]: 153000 M⁻¹ s⁻¹
B3: XVT458-z2-m2 (antibody, V domains shown)
VH: QVQLVQSGAEVKKPGASVKVSCKASGYTFTNFYIHWVRQAPGQGLEWMGRIYPNYGFTAYNQKFKDRVTMTVDTSTSTAYMELRSLRSDDTAVYYCARGYSYAMDYWGQGTTVTVSS
VL: DIQMTQSPSSVSASVGDRVTITCSASQGIYGDLNWYQQKPGKAPKLLIYHTSSLHSGVPSRFSGSGSGTDFTLTISSLQPEDFATYYCQAYSKDLLTFGGGTKLEIK
notes: IgG format; also called z2_XVT458m2

EC50 [3]: 1.34 nM
Max MFI [3]: 41100 MFI
EC50 [4]: 0.094 nM
Max OD [4]: 3.54 OD
EC50 [5]: 0.089 nM
Max OD [5]: 3.37 OD
Max MFI [6]: 124 MFI
kon [7]: 138000 M⁻¹ s⁻¹
Kd [8]: 0.417 nM
koff [8]: 6.57e-05 s⁻¹
kon [8]: 158000 M⁻¹ s⁻¹
B4: XVT458-z2-m3 (antibody, V domains shown)
VH: QVQLVQSGAEVKKPGASVKVSCKASGYTFTNFYIHWVRQAPGQGLEWMGRIYPNYGITAYNQKFKDRVTMTVDTSTSTAYMELRSLRSDDTAVYYCARGYSYAMDYWGQGTTVTVSS
VL: DIQMTQSPSSVSASVGDRVTITCSASQGISGDLNWYQQKPGKAPKLLIYHTSQRHSDVPSRFSGSGSGTDFTLTISSLQPEDFATYYCQGYSKDLLTFGGGTKLEIK
notes: IgG format; also called z2_XVT458m3
